The target of test [1] is HLA-A*02:01 presenting MART1 27-35 peptide (…) on peptide-pulsed T2 cells (human). Briefly: cell-based or functional assay.
The target of test [2] is PE-conjugated HLA-A*02:01/MART1 26-35 heteroclitic multimer (Proimmune) (human). Briefly: structural avidity: flow cytometry, graded A2/MART1 multimer on Jurkat76 transfectants without CD8. A general note: Flow cytometry measures light scatter and fluorescence of single cells or particles in a stream.
For test [3] the target is unchanged. The test can be described thus: structural avidity: flow cytometry, graded A2/MART1 multimer on Jurkat76/CD8αβ transfectants.
Test [4] addresses MART1 peptide on HLA-A*02:01 (human). The test can be described thus: IL-2 ELISPOT; Jurkat76 transfectants without CD8; T2 cells pulsed with graded concentrations of MART1 27-35 peptide; full-length, on cells.
Test [5] shares this target. Briefly: staining with graded concentrations of A2/MART1 multimer; Jurkat76 transfectants without CD8; full-length, on cells.
Test [6] has the same target. The test can be described thus: IL-2 ELISPOT; Jurkat76/CD8αβ transfectants; T2 cells pulsed with graded concentrations of MART1 27-35 peptide; full-length, on cells.
The target is the same in test [7]. The test can be described thus: staining with graded concentrations of A2/MART1 multimer; Jurkat76/CD8αβ transfectants; full-length, on cells.
Test [8] has the same target. Described as above. The following applies: heteroclitic peptide, residues not given.
Test [9] has the same target. The test can be described thus: staining with graded concentrations of A2/MART1 multimer; Jurkat76 transfectants without CD8; full-length, on cells. The following applies: heteroclitic peptide, residues not given.
The target in test [10] is T1, WT1 peptide on HLA-A*24:02 (human, heteroclitic peptide as printed; the natural WT1 235-243 residues are not given).
T1 peptide: CYTWNQMNL
Briefly: cytokine release.

Setting [11] is: chains Valpha:beta TRBV27 TRBJ1-2 CDR3.
Where [12] appears, read: chains Valpha:beta TRBV27 TRBJ2-7 CDR3.

From US20160340403A1 (published 2016) come the findings set out here.

The EC50 is the concentration needed to bring the measured effect to its halfway point. As for A2/MART1-specific TCR, clone DMF5, in test [1], the Functional avidity w/CD8 EC50 (IL-2 ELISPOT, peptide-pulsed T2 cells) stood at 0.33 µM; the Functional avidity w/o CD8 EC50 (IL-2 ELISPOT, peptide-pulsed T2 cells) is 1.4 µM; the Functional avidity with CD8 EC50 (IL-2 ELISPOT, peptide-pulsed T2 cells) was 0.102 µg/mL; the Functional avidity without CD8 EC50 (IL-2 ELISPOT, peptide-pulsed T2 cells) was determined as 0.363 µg/mL. Also, the EC50 in test [2] worked out at 0.03 µg/mL. Besides, the EC50 in test [3] was found to be 0.02 µg/mL.

For the molecule DMF5 TCR, the EC50 of peptide in [4] is 1400 nM; in test [6], 330 nM. In addition, the EC50 of multimer (structural avidity) in test [5] worked out at 0.03 µg/mL; in test [7] it was 0.02 µg/mL.

B1: Clone 1086 (SIG35α with clone 1086 TCRβ) (protein)
chain 1: QKEVEQNSGPLSVPEGAIASLNCTYSDRGSQSFFWYRQYSGKSPELIMFIYSNGDKEDGRFTAQLNKASQYVSLLIRDSQPSDSATYLCAVSIGFGNVLHCGSGTQVIVLP
chain 2: CASSLHGPGGYTF
Regarding B1, the values for the EC50 of multimer (structural avidity) in [8] (setting [11]) and in test [9] (setting [11]) were 0.01 µg/mL and 0.04 µg/mL, respectively.

B2: Clone 523 (SIG35α with clone 523 TCRβ) (protein)
chain 1: B1 chain 1
chain 2: CASGSYEQYF
B2 showed an EC50 of multimer (structural avidity) in [8] (setting [12]) of 0.3 µg/mL.

B3: Clone 788 (SIG35α with clone 788 TCRβ) (protein)
chain 1: B1 chain 1
chain 2: CASGPSYEQYF
On to B3, for which the EC50 of multimer (structural avidity) in test [8] (setting [12]) came to 0.01 µg/mL; in test [9] (setting [12]), 0.05 µg/mL.

B4: Clone T53 (T53 TCRα with TAK1β) (TCR, V domains shown)
Valpha: EDKVVQSPLSLVVHEGDTVTLNCSYEVTNFRSLLWYKQEKKAPTFLFMLTSSGIEKKSGRLSSILDKKELFSILNITATQTGDSAVYLCAVITGGTSYGKLTFGQGTILTVHP
Vbeta: LAGVTQTPRYLIKTRGQQVTLSCSPISGHRSVSWYQQTPGQGLQFLFEYFSETQRNKGNFPGRFSGRQFSNSRSEMNVSTLELGDSALYLCASSLGWRETYNEQFFGPGTRLTVL
As for B4, in test [10], the binding result is on record as “recognises”.

B5: Clone A262 (A262 TCRα with TAK1β) (TCR, V domains shown)
Valpha: EDKVVQSPLSLVVHEGDTVTLNCSYEVTNFRSLLWYKQEKKAPTFLFMLTSSGIEKKSGRLSSILDKKELFSILNITATQTGDSATYLCAVQNAGGTSYGKLTFGQGTILTVHP
Vbeta: B4 Vbeta
On to B5, for which, in test [10], the binding result is reported as “recognises”.

B6: Clone T262 (T262 TCRα with TAK1β) (TCR, V domains shown)
Valpha: EDQVTQSPEALRLQEGESSSLNCSYTVSGLRGLFWYRQDPGKGPEFLFTLYSAGEEKEKERLKATLTKKESFLHITAPKPEDSATYLCAVQALRNNAGNNRKLIWGLGTSLAVNP
Vbeta: B4 Vbeta
Regarding B6, in [10], the binding result is recorded as “recognises”.

B7: Clone T243 (T243 TCRα with TAK1β) (TCR, V domains shown)
Valpha: EDKVVQSPLSLVVHEGDTVTLNCSYEVTNFRSLLWYKQEKKAPTFLFMLTSSGIEKKSGRLSSILDKKELFSILNITATQTGDSAVYLCAVLTQTGANNLFFGTGTRLTVIP
Vbeta: B4 Vbeta
Consider B7, for which the binding result in test [10] was “recognises”.
